To fix the notation:
B1: Bis-108-H3L4 (bispecific antibody, not shown: a dimerising Fc or GST)
heavy: EVQLVQSGAEVKKPGASVKVSCKASGYTFTSYVIHWVRQAPGQGLEWMGYFNPYNDGTKYNEEFKGRVTLTSDKSTSTAYMELRSLRSDDTAVYYCARGGVRRYFDVWGQGTTVTVSS
heavy (part 1 of 2): B1 heavy
heavy (part 2 of 2): GGGGSGGGGSEVQLVESGGGLVQPGGSLRLSCAASGFTFNTYAMNWVRQAPGKGLEWVARIRSKYNNYATYYAASVKGRFTISRDDSKNSLYLQMNSLKTEDTAVYYCARHGNFGNSYVSWFAYWGQGTLVTVSSGGGGSGGGGSGGGGSGGGGSQTVVTQEPSLTVSPGGTVTLTCRSSTGAVTTSNYANWVQQKPGQAPRGLIGGTNKRAPGTPARFSGSLLGGKAALTLSGVQPEDEAEYYCALWYSNLWVFGGGTKLTVLGGGGSGGGGS
light: DIQMTQSPSSLSASVGDRVTITCRASQDIGSNLNWLQQKPGKAIKRLIYATFGLDSGVPSRFSGSRSGTDFTLTISSLQPEDFATYYCQQYASFPYTFGGGTKVEIK
B2: Bis-108-H1L4 (bispecific antibody, not shown: a dimerising Fc or GST)
heavy: B1 heavy with L70M, S72T, K74T
heavy (part 1 of 2): B1 heavy with L70M, S72T, K74T
heavy (part 2 of 2): B1 heavy (part 2 of 2)
light: B1 light
B3: Bis-108-H5L3 (bispecific antibody, not shown: a dimerising Fc or GST)
heavy: B1 heavy with R38K, M48I, R67K, V68A, S72T
heavy (part 1 of 2): B1 heavy with R38K, M48I, R67K, V68A, S72T
heavy (part 2 of 2): B1 heavy (part 2 of 2)
light: B1 light with R66G, F71Y
B4: ATG-Bis-108 (bispecific antibody, not shown: a dimerising Fc or GST)
heavy: EVQLQQSGPELVKPGASVKMSCKASGYTFTSYVIHWVKQKTGQGLEWIGYFNPYNDGTKYNEEFKGKATLTSDKSSNTAYMELNSLTSDDSAVYFCARGGVRRYFDVWGAGTTVTVSS
heavy (part 1 of 2): B4 heavy
heavy (part 2 of 2): B1 heavy (part 2 of 2)
light: DIQMTQSPSSLSASLGERVSLTCRASQDIGSNLNWLQQEPDGTIKRLIYATFGLDSGVPKRFSGSRSGSDYSLTISSLESEDFVDYYCQQYASFPYTFGGGTKLEIK
B5: Bis-108-H2L4 (bispecific antibody, not shown: a dimerising Fc or GST)
heavy: B1 heavy with M48I, V68A, L70M, S72T, K74T
heavy (part 1 of 2): B1 heavy with M48I, V68A, L70M, S72T, K74T
heavy (part 2 of 2): B1 heavy (part 2 of 2)
light: B1 light

Substitutions are numbered along the chain they refer to.

For the assay, the target named is GPRC5D (G-protein coupled receptor family C group 5 member D), human, on multiple myeloma cell lines (human) (UniProt Q9NZD1). The experiment in a line: cell-based or functional assay.
Sequence of GPRC5D (G-protein coupled receptor family C group 5 member D), human, on multiple myeloma cell lines (human) (Q9NZD1 whole entry): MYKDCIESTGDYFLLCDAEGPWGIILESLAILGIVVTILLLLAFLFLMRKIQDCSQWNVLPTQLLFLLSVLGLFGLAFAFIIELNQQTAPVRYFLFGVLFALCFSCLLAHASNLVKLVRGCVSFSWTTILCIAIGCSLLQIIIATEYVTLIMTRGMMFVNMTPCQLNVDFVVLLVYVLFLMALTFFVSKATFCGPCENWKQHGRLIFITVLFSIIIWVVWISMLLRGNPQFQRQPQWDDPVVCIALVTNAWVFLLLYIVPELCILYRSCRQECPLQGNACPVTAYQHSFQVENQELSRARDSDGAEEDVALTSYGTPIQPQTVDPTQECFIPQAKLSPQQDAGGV
In turn, B1 displayed an IC50 (nM), T-Cell Dependent Cytotoxicity, MM.1S of 0.0496 nM and a Top (%), T-Cell Dependent Cytotoxicity, MM.1S of 72.4%.

As to B2, the IC50 (nM), T-Cell Dependent Cytotoxicity, MM.1S came to 0.0597 nM and the Top (%), T-Cell Dependent Cytotoxicity, MM.1S is 75.5%.

The molecule B3 gave an IC50 (nM), T-Cell Dependent Cytotoxicity, MM.1S of 0.0897 nM and a Top (%), T-Cell Dependent Cytotoxicity, MM.1S of 74.8%.

Turning to B4, the IC50 (nM), T-Cell Dependent Cytotoxicity, MM.1S was 0.0871 nM and the Top (%), T-Cell Dependent Cytotoxicity, MM.1S came out at 77.2%.

In the case of B5, the IC50 (nM), T-Cell Dependent Cytotoxicity, MM.1S stood at 0.0934 nM and the Top (%), T-Cell Dependent Cytotoxicity, MM.1S was determined as 74%.

For the origin of these results see patent US20260193348A1.
